Broadly, the stoichiometry N is the number of molecules, sites or subunits per partner or assembly. Broadly, the Kd is the free concentration of one partner at which half of the binding sites on the other are occupied at equilibrium, for simple one-to-one binding. High values mean a looser complex, low ones a tighter complex.

These results are taken from publication PMC10588329.

In experiment [1] the target is CaMKII^L308BzF (human) (UniProt Q9UQM7). The experiment is described as follows: SEC. On the technique in general: In gel filtration, larger molecules generally elute earlier.
Experiment [2] shares this target. Kind of experiment: mass photometry.
For experiment [3], the target named is Human wild-type CaMKII α (CaMKII^WT) (human) (UniProt Q9UQM7). The experiment is described as follows: mass photometry.
Experiment [4] deals with CaMKII^L308BzF (human) (UniProt Q9UQM7). The experiment is described as follows: cross-linking.

Chain of UniProt Q9UQM7 (Q9UQM7 6-478): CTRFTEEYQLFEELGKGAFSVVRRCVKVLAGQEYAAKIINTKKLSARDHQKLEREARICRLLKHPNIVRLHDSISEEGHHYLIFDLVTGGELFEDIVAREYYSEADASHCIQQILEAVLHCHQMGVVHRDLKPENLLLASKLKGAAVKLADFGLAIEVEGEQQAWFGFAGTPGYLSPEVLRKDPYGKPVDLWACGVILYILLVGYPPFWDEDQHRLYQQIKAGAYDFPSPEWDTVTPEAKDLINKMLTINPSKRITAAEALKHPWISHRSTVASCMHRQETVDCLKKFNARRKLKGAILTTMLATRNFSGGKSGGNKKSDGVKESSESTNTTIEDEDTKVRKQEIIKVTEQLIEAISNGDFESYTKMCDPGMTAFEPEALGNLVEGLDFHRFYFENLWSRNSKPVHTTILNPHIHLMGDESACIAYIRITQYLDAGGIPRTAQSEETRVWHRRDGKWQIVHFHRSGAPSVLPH

For the substance “CaMKII^L308BzF (from UniProt Q9UQM7 6-478) (enzyme)”, the stoichiometry N with CaMKII^L308BzF (human) [1] and with CaMKII^L308BzF (human) [2] was 12 subunits each time.

“Human Calmodulin (self-made) (from UniProt P0DP23 1-149) (natural protein)”: in experiment [3], the stoichiometry N (Calmodulin per CaMKII dodecamer) was determined as 5 and the stoichiometry N (Calmodulin per CaMKII holoenzyme) came out at 6.

Take “His-tagged Calmodulin (Calbiochem) (from UniProt P0DP23 1-149) (natural protein)”: the dissociation constant Kd with CaMKII^L308BzF (human) [4] turned out to be 2.5 µM. Also, the stoichiometry N (Calmodulin per CaMKII dodecamer) in the experiment with CaMKII^L308BzF (human) [2] came out at 12.
